From paper doi:10.1101/2021.11.25.470006 (bioRxiv, 2021) come the findings set out here.

Sequences and labels used below:
T1: Smc6 (Walker B mutant E1048Q) (S. cerevisiae, UniProt Q12749 1-1114, E1048Q, BS3-crosslinked within the holo-complex)
T1 sequence: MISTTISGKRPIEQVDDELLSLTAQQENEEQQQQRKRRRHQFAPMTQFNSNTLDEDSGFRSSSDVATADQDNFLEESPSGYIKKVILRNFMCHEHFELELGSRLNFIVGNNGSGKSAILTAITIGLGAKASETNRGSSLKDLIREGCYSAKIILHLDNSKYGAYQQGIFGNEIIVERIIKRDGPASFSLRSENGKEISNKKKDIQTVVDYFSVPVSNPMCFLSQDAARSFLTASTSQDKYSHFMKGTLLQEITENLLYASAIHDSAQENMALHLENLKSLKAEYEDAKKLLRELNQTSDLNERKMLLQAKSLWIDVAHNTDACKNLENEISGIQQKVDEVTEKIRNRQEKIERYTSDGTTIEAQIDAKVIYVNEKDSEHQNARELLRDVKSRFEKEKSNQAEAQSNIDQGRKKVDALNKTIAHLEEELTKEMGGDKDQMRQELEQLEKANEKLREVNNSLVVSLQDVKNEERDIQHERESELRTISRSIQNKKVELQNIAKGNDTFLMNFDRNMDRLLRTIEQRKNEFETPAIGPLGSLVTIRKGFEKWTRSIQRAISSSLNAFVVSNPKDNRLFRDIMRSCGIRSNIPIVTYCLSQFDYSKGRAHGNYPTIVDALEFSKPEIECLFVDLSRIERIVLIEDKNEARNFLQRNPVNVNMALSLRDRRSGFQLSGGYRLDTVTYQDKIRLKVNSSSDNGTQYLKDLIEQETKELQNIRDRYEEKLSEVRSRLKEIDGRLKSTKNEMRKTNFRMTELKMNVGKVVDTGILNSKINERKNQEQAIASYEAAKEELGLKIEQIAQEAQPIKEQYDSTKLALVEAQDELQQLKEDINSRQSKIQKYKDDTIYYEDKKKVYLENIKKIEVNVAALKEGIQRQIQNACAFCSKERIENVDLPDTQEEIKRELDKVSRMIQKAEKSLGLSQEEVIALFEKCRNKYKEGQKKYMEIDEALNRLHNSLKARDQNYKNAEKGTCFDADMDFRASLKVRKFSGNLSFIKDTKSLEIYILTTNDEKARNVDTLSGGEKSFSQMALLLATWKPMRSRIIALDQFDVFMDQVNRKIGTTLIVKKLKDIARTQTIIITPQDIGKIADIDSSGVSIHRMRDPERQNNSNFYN

B1: Nse4 (HALO-tagged) (natural protein, S. cerevisiae)
chain: MSSTVISRKRRNSTVTEPDSSGETRKQKKSRSDEKSSSSKDGDPQLEFKVLQGYRDLESEMHKGRAQVTRTGDIGVAMDNLNAVDSLFNKVIGIKNNGLFAHDARAMVSISELAQISVRNLKFDDSRSMVNLENIVNSLKRYMLKEHFKLNNIAENRNDLTLAADEQSAADQQEESDGDIDRTPDDNHTDKATSSFKATSMRHSYLQQFSHYNEFSQFNWFRIGALYNTISKNAPITDHLMGPLSIEKKPRVLTQRRRNNDQVGEKITAEKITQHSLNSTQQETTPEQVKKCFKKLSKKLGPEGSINLFKFIIDPNSFSRSIENLFYTSFLIKEGKLLMEHDEEGLPTIKIKQSISHTDSRSKEIERQRRRAAHQNHIIFQMDMPTWRKLIKKYNITSPFLD
modifications: BS3-crosslinked within the holo-complex
B2: Nse2 (Mms21) (natural protein, S. cerevisiae)
chain: ALNDNPIPKSVPLHPKSGKYFHNLHARDLSNIYQQCYKQIDETINQLVDSTSPSTIGIEEQVADITSTYKLLSTYESESNSFDEHIKDLKKNFKQSSDACPQIDLSTWDKYRTGELTAPKLSELYLNMPTPEPATMVNNTDTLKILKVLPYIWNDPTCVIPDLQNPADEDDLQIEGGKIELTCPITCKPYEAPLISRKCNHVFDRDGIQNYLQGYTTRDCPQAACSQVVSMRDFVRDPIMELRCKIAKMKESQEQDKRSSQAIDVL
modifications: BS3-crosslinked within the holo-complex
B3: Smc5 (Walker B mutant E1015Q) (natural protein, S. cerevisiae)
chain: MTSLIDLGRYVERTHHGEDTEPRSKRVKIAKPDLSSFQPGSIIKIRLQDFVTYTLTEFNLSPSLNMIIGPNGSGKSTFVCAVCLGLAGKPEYIGRSKKVEDFIKNGQDVSKIEITLKNSPNVTDIEYIDARDETIKITRIITRSKRRSDYLINDYQVSESVVKTLVAQLNIQLDNLCQFLSQERVEEFARLKSVKLLVETIRSIDASLLDVLDELRELQGNEQSLQKDLDFKKAKIVHLRQESDKLRKSVESLRDFQNKKGEIELHSQLLPYVKVKDHKEKLNIYKEEYERAKANLRAILKDKKPFANTKKTLENQVEELTEKCSLKTDEFLKAKEKINEIFEKLNTIRDEVIKKKNQNEYYRGRTKKLQATIISTKEDFLRSQEILAQTHLPEKSVFEDIDIKRKEIINKEGEIRDLISEIDAKANAINHEMRSIQRQAESKTKSLTTTDKIGILNQDQDLKEVRDAVLMVREHPEMKDKILEPPIMTVSAINAQFAAYLAQCVDYNTSKALTVVDSDSYKLFANPILDKFKVNLRELSSADTTPPVPAETVRDLGFEGYLSDFITGDKRVMKMLCQTSKIHTIPVSRRELTPAQIKKLITPRPNGKILFKRIIHGNRLVDIKQSAYGSKQVFPTDVSIKQTNFYQGSIMSNEQKIRIENEIINLKNEYNDRKSTLDALSNQKSGYRHELSELASKNDDINREAHQLNEIRKKYTMRKSTIETLREKLDQLKREARKDVSQKIKDIDDQIQQLLLKQRHLLSKMASSMKSLKNCQKELISTQILQFEAQNMDVSMNDVIGFFNEREADLKSQYEDKKKFVKEMRDTPEFQSWMREIRSYDQDTKEKLNKVAEKYEEEGNFNLSFVQDVLDKLESEIAMVNHDESAVTILDQVTAELRELEHTVPQQSKDLETIKAKLKEDHAVLEPKLDDIVSKISARFARLFNNVGSAGAVRLEKPKDYAEWKIEIMVKFRDNAPLKKLDSHTQSGGERAVSTVLYMIALQEFTSAPFRVVDQINQGMDSRNERIVHKAMVENACAENTSQYFLITPKLLTGLHYHEKMRIHCVMAGSWIPNPSEDPKMIHFGETSNYSFD
modifications: BS3-crosslinked within the holo-complex
B4: Nse1 (natural protein, S. cerevisiae)
chain: MEVHEEQVSAPVTGDATAKYLLQYILSARGICHENALILALMRLETDASTLNTEWSIQQWVDKLNDYINAINVKLNLLGYKIIRINHGIGRNAVTLKAKQNFESFEDNTAIRAHNNDYAVLQSIVLPESNRFFVYVNLASTEETKLATRFNQNEIEFMKWAIEQFMISGETIVEGPALETSIIVKEVNRILVAATGDSNLAKWRKFSTFTVGSTNLFQFQELTATDIEDLLLRLCELKWFYRTQEGKFGIDLRCIAELEEYLTSMYNLNTCQNCHKLAIQGVRCGNESCREENEETGENSLSQIWHVDCFKHYITHVSKNCDRCGSSLITEGVYVI
modifications: BS3-crosslinked within the holo-complex

Holding throughout (assay): cryo-EM structure
The target of assay [1] is B3.
In assay [2] the target is T1, Smc6 (Walker B mutant E1048Q).
The assay “Nse4 (HALO-tagged)” concerns the target B1.

For the molecule B1, the binding result in assay [1] and in assay [2] was “binds” in each case.
For the molecule B2, the binding result in assay [1] and in assay [2] was “binds” throughout.
On to B3, for which the binding result in assay [2] was “binds”.
Take B4: the binding result (in assay [1]; with Nse4 (HALO-tagged)) was “binds” throughout.
